Target: T1, His-DUB3 (UniProt Q6R6M4 1-530)
T1 construct: deubiquitinase DUB3 (USP17L2) cloned into pET30a; also called USP17L2; source: E. coli BL21, purified
T1 sequence (looked up): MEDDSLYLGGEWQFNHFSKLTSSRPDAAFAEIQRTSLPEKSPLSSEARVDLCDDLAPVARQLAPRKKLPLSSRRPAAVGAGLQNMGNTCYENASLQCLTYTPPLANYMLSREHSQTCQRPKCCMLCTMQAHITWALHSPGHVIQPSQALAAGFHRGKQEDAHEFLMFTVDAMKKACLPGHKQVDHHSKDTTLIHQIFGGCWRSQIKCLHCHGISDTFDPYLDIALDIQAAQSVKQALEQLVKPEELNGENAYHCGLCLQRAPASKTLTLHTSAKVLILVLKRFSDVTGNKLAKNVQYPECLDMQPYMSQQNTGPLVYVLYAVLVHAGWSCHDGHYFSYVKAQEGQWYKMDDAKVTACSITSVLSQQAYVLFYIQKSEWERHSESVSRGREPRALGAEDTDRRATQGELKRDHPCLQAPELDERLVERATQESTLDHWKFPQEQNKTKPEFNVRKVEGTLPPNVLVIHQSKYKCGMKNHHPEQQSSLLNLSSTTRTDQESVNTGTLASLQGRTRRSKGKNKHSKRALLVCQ
Test: pull-down; GST or GST-fusion protein on Pierce Glutathione agarose, incubated with purified His-tagged protein at 4 °C for 2 h; four washes; immunoblotting
Details: both partners purified

binding result: binds
B1: GST-CK2α (Casein kinase II alpha, catalytic subunit) (enzyme, UniProt P68400 1-391, looked up)
chain: MSGPVPSRARVYTDVNTHRPREYWDYESHVVEWGNQDDYQLVRKLGRGKYSEVFEAINITNNEKVVVKILKPVKKKKIKREIKILENLRGGPNIITLADIVKDPVSRTPALVFEHVNNTDFKQLYQTLTDYDIRFYMYEILKALDYCHSMGIMHRDVKPHNVMIDHEHRKLRLIDWGLAEFYHPGQEYNVRVASRYFKGPELLVDYQMYDYSLDMWSLGCMLASMIFRKEPFFHGHDNYDQLVRIAKVLGTEDLYDYIDKYNIELDPRFNDILGRHSRKRWERFVHSENQHLVSPEALDFLDKLLRYDHQSRLTAREAMEHPYFYTVVKDQARMGSSSMPGGSTPVSSANMMSGISSVPTPSPLGPLAGSPVIAAANPLGMPVPAAAGAQQ
notes: Casein kinase II alpha (CK2α), catalytic subunit of CK2, cloned into pGEX4T-1; source: E. coli BL21, IPTG induced, pulled down on Pierce Glutathione agarose

Reference: publication PMC11743126, “CK2α-mediated phosphorylation of DUB3 promotes YAP1 stability and oncogenic functions” (Cell Death & Disease, 2025)
